# Data as given in patent US20240043489A1, “Cytokine Prodrugs Comprising a Cleavable Linker” (Trutino Biosciences Inc., priority 2020, published 2024).
# Values joined by “and” are separate entries in the source; they are usually repeats but may differ in a detail not shown here. Equal entries are not always repeated. “Also recorded” adds a separate entry of the source.
# Assays:
# [1] = system: B16F10 melanoma; test: In vivo efficacy of retention linker IL-2 drugs in B16F10 syngeneic model (Example 17); design: species or system mice
# [2] = system: heparin; test: IL-2 fusion protein plate binding assay to Heparin-BSA conjugate
# Method: 96-well plates were coated with 25 ug/mL of Heparin-BSA conjugate (provided by Dr. Mueller, Boerhinger Ingelheim) or control BSA for 18-22 h at room temperature on shaker (350 rpm). After washing, wells are blocked with PBS-0.05% Tween 20/1% BSA for 90 min, then fusion proteins are titrated in 1% BSA/PBS-0.05% Tween 20 pH 7.5 and/or pH 6 and added for 2 hr at room temperature with shaking. After washing, an anti-mouse IL-2 biotin-labelled detection antibody (JES6-5H4, ThermoFisher) is added and binding is detected using Ultra Strepavidin HIRP (ThermoFisher). The plate was developed by adding the chromogenic tetramethylbenzidine substrate (Ultra TMB, ThermoFisher). The reaction is stopped by addition of 0.5M H2SO4 and the absorbance is read at 450-650 nm.
# [3] = system: tumor infiltrating immune cells; test: Immune cell populations by immunohistochemistry in MC38 tumor samples; assay type: in vivo, mice; conditions: MC38 tumors, 10 mg/kg IV Q3D for 21 days
# Method: The objective of this study is to evaluate immune targets in tumor samples by IHC. See below for details: • CD4+Foxp3 double immunofluorescence staining • CD8, CD25, CD3, CD4 and CD335 single IHC staining
# 7 tumor samples were selected from the systemic in vivo efficacy study and formalin-fixed paraffin embedded (FFPE) blocks were prepared following standard embedding process.
# FFPE blocks were sectioned with a manual rotary microtome (4 μm thickness/section) and optimized IHC assay protocols for all the antibodies were used. All stained sections were scanned with NanoZoomer-S60 Image system with 40× magnification. High resolution picture for whole section was generated and further analyzed.
# Scoring Method: All the images were analyzed with HALO™ Image Analysis platform. The whole slide image was analyzed and necrosis area was excluded. The total cells and IHC positive cells were counted. IHC score is presented as the ratio of the positive cell counts against the total cell numbers within whole section and shown in FIG. 8.
# [4] = system: MC38 tumor; test: Systemic IV injection in syngeneic MC38 colorectal cancer model; assay type: in vivo
# Method: The objective of this study is to evaluate efficacy of Construct B in the MC38-bearing female C57BL/6 mice. For this study, C57BL/6 6-8 weeks old female mice (Jackson Labs) were subcutaneously inoculated with MC38 cells (10^6 cells/animal), and when the average tumor volume reached about 80 mm^3, animals were randomized into 2 groups based on tumor volumes (8 mice per treatment group). Animals were dosed according to the following study design:
# Mice were dosed over a 21 day period then further observed for an additional week.
# [5] = system: RM-1; test: In vivo efficacy in RM-1 prostate cancer model
# Method: (§1) For the efficacy studies, C57BL/6 or BALB/c mice were subcutaneously inoculated with malignant cells and when the average tumor volume reached on average 90 mm^3, animals were randomized into 2 groups based on tumor volumes (n=10 mice per treatment group). Mice were dosed intravenously every 3 days (Q3D) at 20 mg/kg. Tumors, body weights and clinical observations were measured/collected twice a week for the duration of the study. Tumor volume is shown in FIGS. 10A-D, 11A, 12A, and 13B-C. […] Liver and kidney enzyme results corresponding to FIGS. 11A and 12A are shown in FIGS. 11B-D and 12B-D, respectively.
# [6] = biological target: T1, MMP9 (Mus musculus, UniProt P41245); test: Cleavage of fusion protein by MMP9 protease (SDS-PAGE / Western blot); assay type: biochemical
# T1 construct: purchased R&D Systems
# Method: Recombinant MMP9 and/or MMP2 (R&D Systems) was first activated with p-aminophenylmercuric acetate and this activated protease or equivalent amount of activating solution without the protease was used to digest or mock digest the fusion protein for 1 hr, 2 hr, 4 hr and overnight (18-22 hr) at 37 C. Cleavage assays are set up in TCNB buffer: 50 mM Tris, 10 mM CaCl2), 150 mM NaCl, 0.05% Brij-35 (w/v), pH 7.5. Digested protein was aliquoted and stored at −80° C. prior to testing. Aliquots of digests were subsequently analyzed by SDS-PAGE followed by Western blotting to evaluate the extent of cleavage. Digests were also assessed in functional assays such as CTLL-2 proliferation and HEK-Blue Interleukin reporter assays. As shown in FIGS. 2A-E, essentially complete cleavage by MMP9 protease of the fusion proteins with functional site is seen after overnight incubation. In contrast, proteins containing a scrambled MMP cleavage site are not cut (FIG. 2E).
# Untreated and digested fusion proteins were evaluated for cleavage products by Western blot. The following monoclonal antibodies were used: rat anti-mouse IL-2 antibody (JES6-1A12; ThermoFisher), goat anti-mouse IL-2 polyclonal antibody (AF-402-NA; R&D systems), mouse anti-6xHis monoclonal antibody (MA1-21315, ThermoFisher), Anti-mIgG Fc HRP conjugated (ThermoFisher cat #A16084), and Anti-human IL2 antibody (Invitrogen, cat #MA5-17097, mouse IgG1). Detection was performed using either a goat anti-rat HRP-conjugated antibody, Donkey Anti-goat HRP-conjugated antibody or Goat Anti-mouse HIRP conjugated (Jackson Immuno Research, West Grove, PA) and developed using the SuperSignal West Femto Maximum sensitivity detection reagent (ThermoFisher) following the manufacturer's recommendations.
# [7] = system: CT-26; test: In vivo efficacy in CT-26 colorectal syngeneic model; design: species or system mice; conditions: CT-26, BALB/c, 20 mpk IV Q3D, D13
# Method: as §1
# T1 sequence (P41245 108-730): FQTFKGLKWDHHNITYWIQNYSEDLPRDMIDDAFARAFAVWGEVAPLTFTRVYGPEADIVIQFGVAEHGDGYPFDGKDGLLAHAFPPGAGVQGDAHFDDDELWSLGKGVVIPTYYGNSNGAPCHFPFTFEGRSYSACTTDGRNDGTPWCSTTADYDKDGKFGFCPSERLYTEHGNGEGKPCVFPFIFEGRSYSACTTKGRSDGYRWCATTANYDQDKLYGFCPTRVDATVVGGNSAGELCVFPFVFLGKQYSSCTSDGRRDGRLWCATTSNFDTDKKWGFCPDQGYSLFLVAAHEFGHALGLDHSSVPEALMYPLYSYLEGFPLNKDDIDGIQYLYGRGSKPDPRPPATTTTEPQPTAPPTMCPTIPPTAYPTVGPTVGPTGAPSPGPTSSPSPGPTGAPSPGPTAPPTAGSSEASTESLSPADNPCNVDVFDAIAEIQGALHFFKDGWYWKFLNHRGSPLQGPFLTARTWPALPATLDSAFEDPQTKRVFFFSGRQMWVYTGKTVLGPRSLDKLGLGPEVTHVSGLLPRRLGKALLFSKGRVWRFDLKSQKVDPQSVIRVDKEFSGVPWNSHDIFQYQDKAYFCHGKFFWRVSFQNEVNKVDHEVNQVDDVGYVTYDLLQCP
molecule,measurement,setting,value
Construct B: SEQ ID NO 101: m IL2-2x(SG4)-MMPcs1-2x(G4S)-IL2Ralpha-mIgG1 Fc (protein) APTSSSTSSSTAEAQQQQQQQQQQQQHLEQLLMDLQELLSRMENYRNLKLPRMLTFKFYLPKQATELKDLQCLEDELGPLRHVLDLTQSKSFQLEDAENFISNIRVTVVKLKGSDNTFECQFDDESATVVDFLRRWIAFCQSIISTSPQSGGGGSGGGGGPLGVRGGGGGSGGGGSELCLYDPPEVPNATFKALSYKNGTILNCECKRGFRRLKELVYMRCLGNSWSSNCQCTSNSHDKSRKQVTAQLEHQKEQQTTTDMQKPTQSMHQENLTGHCREPPPWKHEDSKRIYHFVEGQSVHYECIPGYKALQRGPAISICKMKCGKTGWTQPQLTCVDEREHHRFLASEESQGSRNSSPESETSCPITTTDFPQPTETTAMTETFVLTMEYKGCKPCICTVPEVSSVFIFPPKPKDVLTITLTPKVTCVVVDISKDDPEVQFSWFVDDVEVHTAQTQPREEQFNSTFRSVSELPIMHQDWLNGKEFKCRVNSAAFPAPIEKTISKTKGRPKAPQVYTIPPPKEQMAKDKVSLTCMITDFFPEDITVEWQWNGQPAENYKNTQPIMDTDGSYFVYSKLNVQKSNWEAGNTFTCSVLHEGLHNHHTEKSLSHSPGK,TGI (%) D 15,"[1]; 10 mg/kg IV Q3D, 5 doses",27% and 27.43%
same,efficacy after a dosing holiday of 7 days,"[1]; 10 mg/kg, Day 20",diminished efficacy
same,TGI (%) D 20,"[1]; 10 mg/kg, 7 days following the fifth dose",14.02%
same,TGI (%) D 13,"[1]; 20 mg/kg IV Q3D, 5 doses",61% and 61.43%
same,TGI (%) D 13,"[1]; 40 mg/kg IV Q3D, 5 doses",58.44%
same,TGI,[1]; Construct B treated groups regardless of dose (20 and 40 mg/kg),~60%
same,heparin binding EC50 relative to Construct CC,[2]; fold higher EC50 value,> 100 fold
same,heparin binding (qualitative),"[2]; pH 6 vs pH 7.5, plate assay",much weaker
same,tumor infiltrating immune cells (IHC score) vs vehicle,[3],Significantly more immune cells of all tested types; also recorded: significant increase in tumor infiltrating immune cells
same,adverse effect / systemic toxicity,[4]; 10 mpk IV Q3D for 21 D,Essentially no systemic toxicity; also recorded: no adverse effect
same,mouse body weight during treatment,[4]; 10 mpk IV Q3D for 21 D,substantially constant
same,tumor growth (qualitative),"[4]; IV Q3D, eight administrations, vs vehicle",virtually no tumor growth after initiation of treatment
same,inhibition of tumor growth / Max TGI %,"[4]; MC-38, C57BL/6, 10 mpk IV Q3D, Day 21",92%
same,complete tumor regressions ('cures'),"[4]; out of 8 cases, 10 mpk IV Q3D for 21 D",3
same,"signs of toxicity (body weight loss, liver and/or kidney enzymes, clinical observations)","[5]; RM-1 model, 20 mg/kg IV Q3D",no signs of toxicity
same,Max TGI %,"[5]; RM_1, C57BL/6, 20 mpk IV Q3D, D10",58%
same,full-length cytokine prodrug remaining,[6]; 20 hour +MMP time point,only a faint band
same,time at which cleavage product was detectable,"[6]; +MMP-9 digestion, Western blot",1 h
same,Max TGI %,[7],46%
